The values that follow come from patent publication US20230322953A1 (HARBOUR BIOMED SHANGHAI, published 2023).

First the molecules themselves.
T1: human BCMA (human, UniProt Q02223 1-184)
T1 construct: whole, on cells; also called hBCMA; TNFRSF17
T1 sequence (looked up): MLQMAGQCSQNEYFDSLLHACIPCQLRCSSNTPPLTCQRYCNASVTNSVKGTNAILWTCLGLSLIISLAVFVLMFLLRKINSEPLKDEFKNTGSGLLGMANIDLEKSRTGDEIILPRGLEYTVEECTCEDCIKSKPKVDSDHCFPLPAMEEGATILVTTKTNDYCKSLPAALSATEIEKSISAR

B1: PR002310 (bispecific antibody, human IgG1, lambda, L234A L235A)
light: QAVVTQEPSLTVSPGGTVTLTCRSSTGAVTTSNYANWVQQKPGQAPRGLIGGTNKRAPWTPARFSGSLLGDKAALTLLGAQPEDEAEYFCALWYSNLWVFGGGTKLTVLGQPKAAPSVTLFPPSSEELQANKATLVCLISDFYPGAVTVAWKADSSPVKAGVETTTPSKQSNNKYAASSYLSLTPEQWKSHRSYSCQVTHEGSTVEKTVAPTECS
heavy: EVQLLESGGGLVQPGGSLRLSCAASGFTFSTYAMNWVRQAPGKGLEWVSRIRSKYNNYATYYADSVKDRFTISRDDSKSTLYLQMNSLRAEDTAVYYCVRHGNFGNSYVSWFAYWGQGTLVTVSSASTKGPSVFPLAPSSKSTSGGTAALGCLVKDYFPEPVTVSWNSGALTSGVHTFPAVLQSSGLYSLSSVVTVPSSSLGTQTYICNVNHKPSNTKVDKKVEPKSCDKTHTCPPCPAPEAAGGPSVFLFPPKPKDTLMISRTPEVTCVVVDVSHEDPEVKFNWYVDGVEVHNAKTKPREEQYNSTYRVVSVLTVLHQDWLNGKEYKCKVSNKALGAPIEKTISKAKGQPREPQVYTLPPCREEMTKNQVSLWCLVKGFYPSDIAVEWESNGQPENNYKTTPPVLDSDGSFFLYSKLTVDKSRWQQGNVFSCSVMHEALHNHYTQKSLSLSPGK
chain: EVQLVETGGGLIQPGGSLRLSCAASGFTVSDNYMTWVRQAPGKGLEWVSVIFSGGNTYYADSVKGRFTISRDNAKNTLYLQMNSLRAEDTALYYCARRNYDDTRGTDVFDIWGQGTMVTVSSRTGGGGSGGGGSGGGGSGGGGSGGGGSKLEVQLVETGGGLIQPGGSLRLSCAASGFTVSDNYMTWVRQAPGKGLEWVSVIFSGGNTYYADSVKGRFTISRDNAKNTLYLQMNSLRAEDTALYYCARRNYDDTRGTDVFDIWGQGTMVTVSSASEPKSSDKTHTCPPCPAPEAAGGPSVFLFPPKPKDTLMISRTPEVTCVVVDVSHEDPEVKFNWYVDGVEVHNAKTKPREEQYNSTYRVVSVLTVLHQDWLNGKEYKCKVSNKALGAPIEKTISKAKGQPREPQVCTLPPSREEMTKNQVSLSCAVKGFYPSDIAVEWESNGQPENNYKTTPPVLDSDGSFFLVSKLTVDKSRWQQGNVFSCSVMHEALHNHYTQKSLSLSPGK
B2: PR002313 (bispecific antibody, human IgG1, lambda, L234A L235A)
light: B1 light
heavy: B1 heavy
chain: EVQLLESGGGLVQPGGSLRLSCAASGFTFSSYAMIWVRQAPGKGLEWVSGISESGGSTYYADSVKGRFTISRDNSKNTLYLQMNSLRAEDTAVYFCVKDLDDILTGYYKDYWGQGTLVTVSSRTGGGGSGGGGSGGGGSKLEVQLVETGGGLIQPGGSLRLSCAASGFPVSSNYMSWVRQAPGKGLEWVSVIFSGGRTYYADSVKGRFTISRDNSKNTLYLQMNSLRAEDTAVYYCARRNWIDGRDAFDIWGQGTMVTVSSASEPKSSDKTHTCPPCPAPEAAGGPSVFLFPPKPKDTLMISRTPEVTCVVVDVSHEDPEVKFNWYVDGVEVHNAKTKPREEQYNSTYRVVSVLTVLHQDWLNGKEYKCKVSNKALGAPIEKTISKAKGQPREPQVCTLPPSREEMTKNQVSLSCAVKGFYPSDIAVEWESNGQPENNYKTTPPVLDSDGSFFLVSKLTVDKSRWQQGNVFSCSVMHEALHNHYTQKSLSLSPGK
B3: PR002326 (bispecific antibody, human IgG1, lambda, L234A L235A)
light: B1 light
heavy: B1 heavy
chain: EVQLVETGGGLIQPGGSLRLSCAASGFTVSSNYMTWVRQAPGKGLEWVSVIFSGGSTYYADSVKGRFTISRDNSKNTLYLQMNSLRAEDTAVYYCARRIAVAGHDVFDIWGQGTMVTVSSRTGGGGSGGGGSGGGGSKLEVQLVETGGGLIQPGGSLRLSCAASGFTVSDNYMTWVRQAPGKGLEWVSVIFSGGNTYYADSVKGRFTISRDNAKNTLYLQMNSLRAEDTALYYCARRNYDDTRGTDVFDIWGQGTMVTVSSASEPKSSDKTHTCPPCPAPEAAGGPSVFLFPPKPKDTLMISRTPEVTCVVVDVSHEDPEVKFNWYVDGVEVHNAKTKPREEQYNSTYRVVSVLTVLHQDWLNGKEYKCKVSNKALGAPIEKTISKAKGQPREPQVCTLPPSREEMTKNQVSLSCAVKGFYPSDIAVEWESNGQPENNYKTTPPVLDSDGSFFLVSKLTVDKSRWQQGNVFSCSVMHEALHNHYTQKSLSLSPGK

T2 sequence (A0A2K5UD97 entry or part of it): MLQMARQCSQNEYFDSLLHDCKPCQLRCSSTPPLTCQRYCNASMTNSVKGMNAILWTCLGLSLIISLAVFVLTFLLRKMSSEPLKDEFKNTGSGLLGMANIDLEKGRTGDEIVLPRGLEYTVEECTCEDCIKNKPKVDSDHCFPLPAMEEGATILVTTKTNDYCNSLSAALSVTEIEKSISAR

For one assay, the target named is T1, human BCMA. Put plainly: FACS on NCI-H929 cells.
With B1, the response was half-maximal at 2.09 nM (EC50) and the “Maximum MFI” value is 61300.

For the molecule B2, the EC50 stood at 17.1 nM and the “Maximum MFI” value is 78000.

B3: a half-maximal response (EC50) required 3.54 nM and the “Maximum MFI” value was found to be 60000.

The next assay has as its target T2, cynomolgus monkey BCMA (cynomolgus monkey, UniProt A0A2K5UD97 1-183).
T2 construct: whole, on cells; also called cyno BCMA
As to the kind of experiment: FACS on HEK293T/cyno BCMA cells.
Protocol: This example is intended to investigate the binding activity of anti-BCMA HCAb antibodies to human and cynomolgus monkey BCMAs. […] Specifically, HEK293T/hBCMA cells and HEK293T/cyno BCMA cells were digested and resuspended in a DMEM complete medium. In addition, NCI-H929 cell suspension was collected. The density of each of the three cells was adjusted to 1×10⁶ cells/mL. […] The cells were incubated at 4° C. for 1 h away from light. Thereafter, the cells in each well were rinsed twice with 100 μL of pre-cooled PBS, and centrifuged at 500 g at 4° C. for 5 min, and then the supernatant was discarded. […] The cells in each well were rinsed twice with 100 μL of pre-cooled PBS, and centrifuged at 500 g at 4° C. for 5 min, and then the supernatant was discarded. Finally, the cells in each well were resuspended in 200 μL of pre-cooled PBS. Fluorescence signal values were read using a BD FACS CANTOII flow cytometer or an ACEA NovoCyte flow cytometer, and the data were processed and analyzed using FlowJo v10 (FlowJo, LLC) software. The data were processed and analyzed by plotting using GraphPad Prism 8 software, and binding curves of the antibodies to target cells, EC₅₀ values and other parameters were obtained through four-parameter nonlinear fitting.
With B1, the “Maximum MFI” value amounted to 42000.

For the molecule B2, the “Maximum MFI” value was found to be 7610.

For the molecule B3, the “Maximum MFI” value was 6440.

For orientation: EC50 means the midpoint of the concentration-response curve.
